Source: patent JP2008512352A (dated 2008)
Several values for one entry are separate records, joined by “and”; a condition that tells them apart may be missing. Equal values may be shown once. Each block holds one binder with its values, some of them ahead of it.

Legend:
[1] = biological target: EGFR (腫瘍細胞上) (UniProt P00533 25-1210, limits assumed); test: cell-based or functional assay
[2] = biological target: T1, ヒトEGFR (プレート被覆) (human, UniProt P00533 25-645); test: direct binding ELISA on immobilised EGFR (ED50: antibody concentration giving 50% of maximal binding)
T1 construct: extracellular domain; 'Extracellular domain' in the legend is read as applying to both EGFR and IGFR; also called 固定化EGFR

[3] = biological target: T2, IGFR 細胞外ドメイン (プレート被覆) (human, UniProt P08069 31-935); test: direct binding ELISA on immobilised IGFR (ED50: antibody concentration giving 50% of maximal binding)
T2 construct: extracellular domain; 'ヒト' in the legend is read as applying to both EGFR and IGFR; also called 固定化IGFR; IGF-IR

DiFi細胞の増殖阻害 IC50 (MTT) [1]: ~1000 pM
B1: IMC-11F8 (antibody, V domains shown)
VH: QVQLQESGPGLVKPSQTLSLTCTVSGGSISSGDYYWSWIRQPPGKGLEWIGYIYYSGSTDYNPSLKSRVTMSVDTSKNQFSLKVNSVTAADTAVYYCARVSIFGVGTFDYWGQGTLVTVSS
VL: EIVMTQSPATLSLSPGERATLSCRASQSVSSYLAWYQQKPGQAPRLLIYDASNRATGIPARFSGSGSGTDFTLTISSLEPEDFAVYYCHQYGSTPLTFGGGTKAEIK

EC50 [2]: 100 pM and 200 pM
EC50 [3]: 250 pM and 500 pM
DiFi細胞の増殖阻害 IC50 (MTT) [1]: 25000 pM
B2: 抗-EGFR/抗-IGFR ジ-ダイアボディ (bispecific antibody)
chain 1: B1 VH
chain 2: B1 VL
chain 3: EVQLVQSGAEVKKPGSSVKVSCKASGGTFSSYAISWVRQAPGQGLEWMGGIIPIFGTANYAQKFQGRVTITADKSTSTAYMELSSLRSEDTAVYYCARAPLRFLEWSTQDHYYYYYMDVWGKGTTVTVSS
chain 4: SSELTQDPAVSVALGQTVRITCQGDSLRSYYASWYQQKPGQAPVLVIYGKNNRPSGIPDRFSGSSSGNTASLTITGAQAEDEADYYCNSRDNSDNRLIFGGGTKLTVL

EC50 [3]: 100 pM
B3: IMC-A12 (antibody, V domains shown)
VH: B2 chain 3
VL: B2 chain 4
